Test results reported in patent US20220242950A1 (CANTARGIA, published 2022).

B1: h48D2 VH5:VL5 (antibody, human IgG1, kappa, L234A L235A)
heavy: not shown
light: APVLTQSPATLEASVGDRVTITCQASESISTALAWYQQKPGQPPKLLIYKASTLPSGVPSRFSGSGSGTEFTLTISDLESDDAATYYCQQGFSSGNVHNAFGGGTEVVVKRTVAAPSVFIFPPSDEQLKSGTASVVCLLNNFYPREAKVQWKVDNALQSGNSQESVTEQDSKDSTYSLSSTLTLSKADYEKHKVYACEVTHQGLSSPVTKSFNRGEC
notes: Humanized; also called VL5:VH5
B2: h48D2 VH5:VL1 (antibody, human IgG1, kappa, L234A L235A, V domains shown)
VH: QEQLEESGGGLVKPGGTLSLTCTVSGPSLSHFDITWIRQAPGSGLEWIGTISPGVSTYYASWAKSRVTISVDTSLNTVSLKLSSVTAADTATYFCARGGVGSSWKAFDLWGPGTLVTISS
VL: DIVMTQSPSSLSASVGDRVTITCQASESISTALAWYQQKPGKAPKLLIYKASTLPSGVPSRFSGSGSGTDFTLTISSLQPEDFATYYCQQGFSSGNVHNAFGGGTKVVIKR
notes: Humanized; also called VL1:VH5
B3: h48D2 VH5:VL2 (antibody, human IgG1, kappa, L234A L235A, V domains shown)
VH: QEQLEESGGGLVKPGGTLSLTCTVSGPSLSHFDITWIRQAPGSGLEWIGTISPGVSTYYASWAKSRVTISVDTSLNTVSLKLSSVTAADTATYFCARGGVGSSWKAFDLWGPGTLVTISS
VL: QIVLTQSPATLSASVGDRVTITCQASESISTALAWYQQKPGKAPKLLIYKASTLPSGVPSRFSGSGSGTEFTLTISSLQPDDSATYYCQQGFSSGNVHNAFGQGTKLEIKR
notes: Humanized; also called VL2:VH5
B4: h48D2 VH5:VL3 (antibody, human IgG1, kappa, L234A L235A, V domains shown)
VH: QEQLEESGGGLVKPGGTLSLTCTVSGPSLSHFDITWIRQAPGSGLEWIGTISPGVSTYYASWAKSRVTISVDTSLNTVSLKLSSVTAADTATYFCARGGVGSSWKAFDLWGPGTLVTISS
VL: DILLTQTPSVVSASVGDRVTITCQASESISTALAWYQQKPGQAPRLLIYKASTLPSGVPSRFRGSGSGTDFTLTITSLQPEDFATYYCQQGFSSGNVHNAFGGGTRLEIKR
notes: Humanized; also called VL3:VH5
B5: h48D2 VH1:VL1 (antibody, human IgG1, kappa, L234A L235A, V domains shown)
VH: EVQLEESGGGLVKPGGSLRLSCAASGPSLSHFDITWVRQAPGKGLEWVSTISPGVSTYYASWAKSRFTISRDNSKNTLYLQMNSLRAEDTAVYYCARGGVGSSWKAFDLWGRGTLVTVSS
VL: DIVMTQSPSSLSASVGDRVTITCQASESISTALAWYQQKPGKAPKLLIYKASTLPSGVPSRFSGSGSGTDFTLTISSLQPEDFATYYCQQGFSSGNVHNAFGGGTKVVIKR
notes: Humanized; also called VL1:VH1
B6: h48D2 VH1:VL2 (antibody, human IgG1, kappa, L234A L235A, V domains shown)
VH: EVQLEESGGGLVKPGGSLRLSCAASGPSLSHFDITWVRQAPGKGLEWVSTISPGVSTYYASWAKSRFTISRDNSKNTLYLQMNSLRAEDTAVYYCARGGVGSSWKAFDLWGRGTLVTVSS
VL: QIVLTQSPATLSASVGDRVTITCQASESISTALAWYQQKPGKAPKLLIYKASTLPSGVPSRFSGSGSGTEFTLTISSLQPDDSATYYCQQGFSSGNVHNAFGQGTKLEIKR
notes: Humanized; also called VL2:VH1
B7: h48D2 VH1:VL3 (antibody, human IgG1, kappa, L234A L235A, V domains shown)
VH: EVQLEESGGGLVKPGGSLRLSCAASGPSLSHFDITWVRQAPGKGLEWVSTISPGVSTYYASWAKSRFTISRDNSKNTLYLQMNSLRAEDTAVYYCARGGVGSSWKAFDLWGRGTLVTVSS
VL: DILLTQTPSVVSASVGDRVTITCQASESISTALAWYQQKPGQAPRLLIYKASTLPSGVPSRFRGSGSGTDFTLTITSLQPEDFATYYCQQGFSSGNVHNAFGGGTRLEIKR
notes: Humanized; also called VL3:VH1
B8: h48D2 VH1:VL4 (antibody, human IgG1, kappa, L234A L235A, V domains shown)
VH: EVQLEESGGGLVKPGGSLRLSCAASGPSLSHFDITWVRQAPGKGLEWVSTISPGVSTYYASWAKSRFTISRDNSKNTLYLQMNSLRAEDTAVYYCARGGVGSSWKAFDLWGRGTLVTVSS
VL: ELVMTQSPSSVSASVGDRVTITCQASESISTALAWYQQKPGKAPKLLIYKASTLPSGVPSRFSGSGSGTDFTLTINSLQPEDFATYYCQQGFSSGNVHNAFGGGTKVEIKR
notes: Humanized; also called VL4:VH1
B9: h48D2 VH2:VL1 (antibody, human IgG1, kappa, L234A L235A, V domains shown)
VH: EVQLVESGGALVQPGGSLRLSCIVSGPSLSHFDITWFRQAPGKGLEWVATISPGVSTYYASWAKSRFTISTDTSKNTLFLQMDSLRAEDTAVYYCARGGVGSSWKAFDLWGPGTLVTVSS
VL: DIVMTQSPSSLSASVGDRVTITCQASESISTALAWYQQKPGKAPKLLIYKASTLPSGVPSRFSGSGSGTDFTLTISSLQPEDFATYYCQQGFSSGNVHNAFGGGTKVVIKR
notes: Humanized; also called VL1:VH2
B10: h48D2 VH3:VL1 (antibody, human IgG1, kappa, L234A L235A, V domains shown)
VH: EVQLLESGGGLVLPGGSLRLSCAASGPSLSHFDITWVRQAPGKGLEWVSTISPGVSTYYASWAKSRFTISRDNSKNTLYLQMSSLRAEDTAVYYCARGGVGSSWKAFDLWGLGTTVTVSS
VL: DIVMTQSPSSLSASVGDRVTITCQASESISTALAWYQQKPGKAPKLLIYKASTLPSGVPSRFSGSGSGTDFTLTISSLQPEDFATYYCQQGFSSGNVHNAFGGGTKVVIKR
notes: Humanized; also called VL1:VH3

Legend:
[1] = biological target: T1, recombinant hIL1RAP Domain1+2+3 (aa21-367) (human, UniProt Q9NPH3 21-367); test: bio-layer interferometry, human IL1RAP
T1 construct: Numbering on Uniprot Q9NPH3
T1 sequence (looked up): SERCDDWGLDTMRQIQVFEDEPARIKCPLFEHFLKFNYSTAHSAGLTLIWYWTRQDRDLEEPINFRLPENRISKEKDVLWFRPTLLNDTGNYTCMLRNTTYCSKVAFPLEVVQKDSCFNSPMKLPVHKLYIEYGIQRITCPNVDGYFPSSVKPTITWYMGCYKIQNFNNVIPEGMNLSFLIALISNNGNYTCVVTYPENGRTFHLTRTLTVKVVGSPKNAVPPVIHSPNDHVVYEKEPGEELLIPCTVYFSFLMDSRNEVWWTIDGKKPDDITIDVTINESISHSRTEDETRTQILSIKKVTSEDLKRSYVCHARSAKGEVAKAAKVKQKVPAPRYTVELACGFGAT
Method: Affinity measurements were done on BLItz™ Label-Free Protein Analysis System from ForteBio, using the Basic Kinetics module in the BLItz Pro 1.3.1.3 software from Molecular Devices. Protein A biosensors were hydrated in blocking buffer (PBS, 0.5% BSA, 0.05% Tween 20, pH 7.4) for minimum 10 min at room temperature before coating. Protein A biosensors were coated with antibodies by dipping the biosensors in 200 μl of antibody solution (10 μg/ml in blocking buffer) for 30 min at room temperature. The sensors were then incubated in 200 μl blocking buffer for at least 10 min before use. […] The baseline was made in blocking buffer with a duration time of 30 sec. Association was made for 120 sec in hIL1RAP followed by 120 sec dissociation in blocking buffer.
The antibodies were characterized for A) binding (ELISA analysis, human and cynomolgus monkey IL1RAP), B) inhibition of cytokine signaling (HEK-Blue™ assay), C) affinity (Bio-layer interferometry), D) size heterogeneity (SE-HPLC) and E) yield (concentration, A280). […] SE-HPLC was performed using standard procedures and PBS as running buffer. Affinity and cytokine inhibition were measured as previously described in Example 10. All 25 humanized clones were analyzed for blocking activity on IL-1α, IL-1β and IL-33 signaling while only the clones that had retained the inhibitory activity similar to chimeric 48D2 were analyzed for IL-36 inhibition.
KD values for affinity towards human IL1RAP are shown in Table 11 for the humanized 48D2 variants. Affinity was measured using bio-layer interferometry. […] See also Table 4 for a direct comparison of chimeric 48D2, humanized 48D2 variant VH5:VL4, and a humanized and de-immunized 48D2 variant VH5.GL:VL4.

[2] = biological target: T2, human IL1RAP on the cell surface (human, UniProt Q9NPH3 21-570); test: cell-based or functional assay
T2 sequence (looked up): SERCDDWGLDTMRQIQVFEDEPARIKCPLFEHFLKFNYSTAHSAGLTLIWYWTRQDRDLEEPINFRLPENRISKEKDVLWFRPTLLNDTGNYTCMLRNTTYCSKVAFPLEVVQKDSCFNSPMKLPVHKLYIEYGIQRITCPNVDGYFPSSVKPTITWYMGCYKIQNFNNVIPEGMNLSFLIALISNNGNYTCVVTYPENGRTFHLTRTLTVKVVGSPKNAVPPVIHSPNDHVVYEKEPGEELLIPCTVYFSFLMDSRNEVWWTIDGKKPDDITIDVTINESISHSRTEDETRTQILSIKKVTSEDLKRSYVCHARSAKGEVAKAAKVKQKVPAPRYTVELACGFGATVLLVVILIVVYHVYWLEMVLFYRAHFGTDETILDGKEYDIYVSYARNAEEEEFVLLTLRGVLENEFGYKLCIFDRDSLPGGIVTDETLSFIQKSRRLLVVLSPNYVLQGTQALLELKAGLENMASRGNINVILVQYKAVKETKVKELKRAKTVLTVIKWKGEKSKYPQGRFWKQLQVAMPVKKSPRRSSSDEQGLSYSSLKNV

[3] = biological target: T1, recombinant hIL1RAP Domain1+2+3 …; test: binding ELISA, coated recombinant hIL1RAP aa21-367
[4] = biological target: T3, recombinant mf IL1RAP aa21-367 (cynomolgus monkey (Macaca fascicularis), UniProt A0A2K5X5J5 21-367); test: binding ELISA, coated recombinant mf IL1RAP aa21-367
T3 construct: also called cynomolgus monkey IL1RAP; cyno IL1RAP
T3 sequence: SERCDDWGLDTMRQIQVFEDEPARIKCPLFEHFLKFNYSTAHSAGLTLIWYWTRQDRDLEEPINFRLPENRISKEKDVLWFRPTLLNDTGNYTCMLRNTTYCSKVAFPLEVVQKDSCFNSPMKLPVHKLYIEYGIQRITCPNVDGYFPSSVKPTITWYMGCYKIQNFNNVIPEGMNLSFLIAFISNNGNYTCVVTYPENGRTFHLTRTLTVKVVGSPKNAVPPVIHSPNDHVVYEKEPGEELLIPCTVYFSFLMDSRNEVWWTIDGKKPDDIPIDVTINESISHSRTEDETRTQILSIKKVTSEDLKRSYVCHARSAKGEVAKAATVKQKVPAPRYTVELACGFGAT

Binder	Kd [1]	IC50 of IL-1α signaling (HEK-Blue assay) [2]	IC50 of IL-33 signaling (HEK-Blue assay) [2]	IC50 of IL-36β signaling (HEK-Blue assay) [2]	IC50 of IL-36γ signaling (HEK-Blue assay) [2]	IC50 [3]	IC50 [4]	IC50 of IL-36α signaling (HEK-Blue assay) [2]	IC50 of IL-1β signaling (HEK-Blue assay) [2]
B1	1.68 nM	6.3 nM	1.23 nM	11.1 nM	0.192 nM	0.0276 µg/mL	0.0313 µg/mL	–	–
B2	2.75 nM	2.14 nM	3.14 nM	–	3.1 nM	0.0248 µg/mL	0.0261 µg/mL	0.286 nM	–
B3	4.27 nM	3.77 nM	0.647 nM	–	0.253 nM	0.0231 µg/mL	0.0218 µg/mL	–	–
B4	2.33 nM	4.45 nM	2.72 nM	17.4 nM	0.167 nM	0.0249 µg/mL	0.0288 µg/mL	0.0779 nM	–
B5	30.3 nM	227 nM	254 nM	–	–	0.0181 µg/mL	0.0226 µg/mL	–	51.6 nM
B6	33.7 nM	242 nM	–	–	–	0.0182 µg/mL	0.0198 µg/mL	–	37.6 nM
B7	35 nM	231 nM	195 nM	–	–	0.0201 µg/mL	0.018 µg/mL	–	17.2 nM
B8	42.9 nM	347 nM	–	–	–	0.019 µg/mL	0.02 µg/mL	–	14.6 nM
B9	13.2 nM	~43800 nM	–	–	–	0.0238 µg/mL	0.0279 µg/mL	–	2.75 nM
B10	28 nM	–	~87500 nM	–	–	0.0257 µg/mL	0.0294 µg/mL	–	9.54 nM
